Results as given in patent US20120149645A1, “COMPOSITIONS AND MODULATION OF MYOCYTE ENHANCER FACTOR 2 (MEF2)” (EMORY UNIVERSITY, priority 2010, published 2012).

Columns and labels:
mitochondrial complex I = assay: Mitochondrial complex protein level and activity (BN-PAGE, in-gel staining, quantitative assays); type: cell-based, mouse; details: over-expression in SN4741 cells
Text: (§1) (A) Requirement of mitochondrial MEF2D for complex I activity. […] Control indicates the control vector group. (B) Over-expression of ND6 rescued complex I activity reduced by Mt2Ddn. Control indicates the control vector group. (C) Measurement of various complex activities. […] Control indicates the control vector group. (D) Effects of over-expression of Mt2D or Mt2Ddn on mitochondrial function. Mt2Ddn reduced cellular ATP level and elevated H2O2 production in SN4741 cells (n=4; *p<0.05; **P<0.01). Control indicates the control vector group.
(§2) Mitochondrial complex I activity was evaluated initially by blue native-polyacrylamide gel electrophoresis (BN-PAGE) and in-gel activity staining. This assay measures total complex I activity. Rotenone sensitive complex I activity and activities of other mitochondrial complexes were further measured by methods described by Antoni et al., J Biol Chem, 1998, 273:14210-14217. Briefly, parallel assays were performed to measure complex I activity at 340 nm using 2,3-dimethoxy-5-methyl-6-n-decyl-1,4-benzoquinone (DB) (50 μM) as acceptor and NADH (0.8 mM) as donor, in 50 mM Tris (pH 8.0) buffer supplemented with 5 mg/ml BSA either without or with the addition of 4 μM rotenone, which gave total and rotenone insensitive complex I activities, respectively. The difference in value between the two provided a quantified measure of the rotenone-sensitive activity. Mitochondrial membrane potential was detected using a kit (cat. no. 280002) from Stratagene following the procedures provided by the manufacturer. The fluorescent dye JC-1 (5,5′,6,6′-tetrachloro-1,1′,3,3′-tetraethylbenzimidazolyl carbocyanine iodide) stains mitochondria red in a membrane potential dependent manner. Briefly, cells were seeded in 96-well plates at 4×10^4 cells/well with 100 μl culture medium and incubated at 33° C. with 5% CO2. After treatment, 10 μl/well of premixed JC-1 staining solution was added, and the cells were incubated for an additional 30 min under the same conditions. After thorough washes, 100 μl assay buffer was added to each well. Fluorescence signal was detected with excitation and emission at 520 nm and 590 nm, respectively, on a multi-well plate reader (Bio-Tek). Cellular ATP and H202 were measured by Bioluminescent Somatic Cell ATP Assay Kit (Sigma) and Hydrogen Peroxide Assay Kit (Cayman), respectively.

SN4741 cells = assay: Mitochondrial functional assays (ATP, H2O2, membrane potential); type: cell-based, mouse; details: over-expression in SN4741 cells
Text: as §1, §2

MEF2D and ND6 proteins = assay: Western blotting of MEF2D, ND6 and PGC1 protein levels in SN4741 cells; type: cell-based, mouse; details: construct over-expressed in SN4741 cells
Text: (§3) (A) Mitochondria-targeting MEF2D (Mt2D) and mitochondria-targeting dominant-negative MEF2D (Mt2Ddn), which lacks the transactivation domain (TAD). […] Control indicates the control vector group. (C) Effects of Mt2D or Mt2Ddn on ND6 expression in SN4741 cells. Over-expression of Mt2Ddn in SN4741 cells reduced ND6 but not PPAR-γ coactivator 1 (PGC1) expression by western blotting (n=4, **p<0.01). Control indicates the control vector group. (D) Effects of over-expression of Mt2D or Mt2Ddn on mRNA levels of mitochondria encoded genes. […] Control indicates the control vector group. (E) Effects of Mt2D or Mt2Ddn on mtDNA L-strand transcription initiation in vitro (n=3; **P<0.01). A human mtDNA fragment containing mitochondrial L-strand promoter (LSP) and ND6 gene was used in the in vitro transcription assay. […] (F) Effects of Mt2D or Mt2Ddn on mtDNA de novo transcription in vivo (n=3; **P<0.01). Control (−) is without primers. Control (+) indicates the control vector group.
(§4) (A) Reduced binding of MEF2D to ND6 after neurotoxin treatment. SN4741 cells were treated with MPP+ (25 μM) or rotenone (Rot, 100 nM) for 12 hours. […] Control indicates untreated. […] Control indicates untreated. (C) Immunocytochemical analysis of mitochondrial MEF2D after MPP+ and rotenone treatment. SN4741 cells treated as described in (A) were stained (scale bar, 10 μm). […] Experiments were repeated four times. Control indicates untreated. […] SN4741 cells were treated with MPP+ after infection with the control, Mt2Ddn or Mt2DVP16 or MtND6 lentiviruses for 24 hours (upper graph: different doses of MPP+ for 24 hours; lower graph: 5 μM of MPP+ for different times). Cell viability was measured by WST-1 assay (n=4; *p<0.05; **P<0.01). Control indicates the control vector group.
(A) Diagrams of Mt2DVP16 and MtND6. Mt2DVP16 was constructed by fusion of transactivation domain (TAD) of VP16 with DNA-binding domain of MEF2D and a mitochondria-targeting sequence (Mito). […] (C) Over-expression of Mt2DVP16 attenuated MEF2D siRNA-induced reduction of ND6 expression (n=3, **P<0.01).

nuclear MEF2 = assay: MEF2 luciferase reporter assay; type: cell-based; details: co-transfected with MEF2 luciferase reporter
Text: Control indicates the group co-tranfected with control vector.
MEF2 luciferase reporter assay was done as described Wang et al., J Biol Chem, 2005, 280:16705-16713. Briefly, cells were transiently transfected with various constructs with MEF2 luciferase reporter plasmid (WT, reporter with wild type MEF2 DNA binding sites; mt, reporter with the MEF2 DNA binding sites mutated) using Lipofectimane 2000 (Invitrogen) following procedures provided by the manufacturer. A β-galactosidase expression plasmid was used to determine the efficiency in each transfection. The total amount of DNA for each transfection was kept constant by using control vectors. Cell lysates were analyzed for luciferase and β-galactosidase activity according to the manufacturer's instructions (Roche, cat. no. 11669893001).

MEF2D binding to ND6 = assay: ChIP assay of MEF2D binding to the ND6 MEF2 site in purified mitochondria; type: cell-based, mouse; details: construct over-expressed in SN4741 cells
Text: as §3, §4
Andres et al., J Biol Chem, 1995, 270:23246-23249. Moreover, this putative MEF2 binding site is conserved among several species. To test whether MEF2D binds to this putative MEF2 site, electronic mobility shift assay (EMSA) was performed. N-terminal MEF2D formed a complex with the labeled probe containing the ND6 MEF2 site. […] To corroborate this finding, a chromatin immunoprecipitation (ChIP) assay was carried out using highly purified mitochondria. […] ND6 but not ND2 based primers could amplify the bound sequence (FIG. 3C). Sequence analysis of the DNA bound by MEF2D after amplification confirmed the presence of the ND6 MEF2 site (FIG. 3D).

[1] = non-denature gel electrophoresis

B1: Mt2Ddn: Mitochondria-targeting dominant-negative MEF2D: mouse MEF2D 1-131aa with mitochondria-targeting signal, lacks the transactivation domain (protein, UniProt Q63943 1-131, looked up, fragment)
chain: MGRKKIQIQRITDERNRQVTFTKRKFGLMKKAYELSVLCDCEIALIIFNHSNKLFQYASTDMDKVLLKYTEYNEPHESRTNADIIETLRKKGFNGCDSPEPDGEDSLEQSPLLEDKYRRASEELDGLFRRY
modifications: mitochondria-targeting signal added
mitochondrial complex I activity (mitochondrial complex I): significantly reduced
protein level of complex II-V (mitochondrial complex I; [1]): no effect
protein level of mitochondrial complex I (mitochondrial complex I; [1]): markedly reduced
cellular ATP level (SN4741 cells): clear reduction
hydrogen peroxide production by mitochondria (SN4741 cells): significantly increased
mitochondrial membrane potential (SN4741 cells; JC-1): did not significantly alter
ND6 protein level / expression (MEF2D and ND6 proteins): marked reduction
level of PGC1 (nuclear target of MEF2) (MEF2D and ND6 proteins): did not alter
nuclear MEF2 activity (MEF2 reporter) (nuclear MEF2): did not affect
binding of full length MEF2D to the ND6 MEF2 site (MEF2D binding to ND6): modulated
